According to the DeepSol protein solubility set:

experiment: soluble on expression in E. coli; label from the status in PepcDB or PDB records

| Sequence | soluble on expression in E. coli |
| --- | --- |
| MEQPKYKRVVLKLSGEALAGKQGFGIQPAVIQSIAKQVKEVVELGVEVAIVVGGGNIWRGKTGSEMGMDRATADYMGMLATVMNALALQDSLEQLGVETRVQTSIEMRQVAEPYIRRRAIRHLEKKRVVIFAAGTGNPYFSTDTTAALRAAEIEADVILMAKNNVDGVYSADPNVDANALKYDELSYLDVIKQGLGVMDSTASSLCMDNNIPLIVFSIMEEGNIKRAVLGENIGTIVRGK | not soluble |
| MGRKEMLQNGVQQVFYEEEWYPPISEAVKNLTVEQACWQPEGAASNTIWENVNHLLIFKERLLSRLHEDDTFVAPQNNDETFIQGGPNDDAAWQQTVKRTLQVHDALQSSLTALQEAELDQLSPSLPVWQQYMNILLHDAYHTGQIIQLRKLQGSWPTHRSYL | not soluble |
| GMMQKPITEIIIVGGGTAGWITAGLLAAEHNVDKGVLAHSPKLNITLIESPDVATIGVGEGTWPSMRSTLSKIGIDENDFIRQCDASFKQGSRFINWCKDPQSNVADSYLHPFSLPHGHQELDLCPYWLPHAEQVSFAEAVCSQQVLTQLGLAPKSIVTAQYHFQNNYGYHLNAAKFSQLLTEHCTQKLGVTHIRDHVSQIINNQHGDIEKLITKQNGEISGQLFIDCTGAKSLLLGEHLQVPFLSQKSVLFNDRALAIQVPYSDANSPIASCTHSTAQPNGWIWDIGLPTRKGVGYVYSSSHTNDIDAQKTLFNYLGVDGAAADKLEPRQLAINPGYRAKCWQNNCIAIGMAAGFIEPLEASALALIEWTASTLAQQLPPNRMVMDTISARVNERYQQHWQQIIDFLKLHYVISQRQEDRYWRDHRESNSIPDSLQAMLELWRYQTPSQQDISYKEALFPAASFQYVLYGMSFNTQLPTHVKPSMQQLAQRLFNDNQQRTQALSKNLPTNRELLDKVAQYGFPKL | soluble |
| MGSDKIHHHHHHMQLKLSSVSKKFDHKIILEDTSFTFEQGKIYGLLGRNGAGKTTLFNCIARNLTLDGGSIQFVKDEIAFDYDNTDIGFTQTYPQLPAFMTAYEFVRFYMDIHKDKLKSPRSPEEWLNLVGIGEEDRHRLLKDFSHGMQNKVQLLLSLIVQPPVLLLDEPLTSFDPVAAHEFKQLIREAKKDSVIIFSTHILQLAQDLCDEIVLLHHQELQAVPSDKLHDPDFEQEVVTLLTAD | not soluble |
| MEKMIITAAICGAEVLKEHNPAVPYTVEECVREAKSAYDAGASIIHLHVRYDDGTPTQDRNRFKEVMEAIKAVCPDVIIQPSTGGAVGMTNDERLQPTELFPEMATLDCGTLNFGGDEVFTNTENTIKYFGEKMIERGIKPELEVFDKSMIDMALRLHRKGYIQSPMHFDFVMGVNGGISGEMRDFVFLRESIPADATYTVAGVGRYEFPLAALAIIDGGHVRVGFEDNVYISKGVLARSNGELVEKVVRMAKEMGREIATPAEARRILGLSK | soluble |
| MNGVEGNNELSLANTTTPSHASEDLDLKQDQGLQEETDTVREMEAAGEAGADGGASPDSEHCGPELCFRVAENSCAAAARGLEDAPSPSKGGDAPSAPVAADDSSKNGCQLEGPHSPAKPKALEACGAVGLGSQQMPGPKKTKEMTTTKCAISVATGKEGEAGAAMQEKKGLQKEKKVAGGGKEETRPRAPKINCMDSLEAIDQELSNVNAQADRAFLQLERKFGRMRRLHMQRRSFIIQNIPGFWVTAFRNHPQLSPMISGQDEDMMRYMINLEVEELKQPRVGCKFKFIFQSNPYFRNEGLVKEYERRSSGRVVSLSTPIRWHRGQEPQAHIHRNREGNTIPSFFNWFSDHSLLEFDRIAEIIKGELWSNPLQYYLMGDGPRRGVRVPPRQPVESPRSFRFQSG | soluble |
| MSEQSFSNANKGSETLNGSAASFVSHKRFYDDTNFPKGFKRSGDFTSKEAELLELHGHAMKNLAEGKTLPVTADEAQFVEVIKGNIAPSSLLEHIWLKYRKLARGKPFYAVVGTVHLPATKPEVEVEPEAAFDVDVEIEDDVQDEAEPEDKA | soluble |
| MSLIYQTPDALDLQLDRIPSLPPPRRVVLTTPTHFDVEYVINPHMSENVGAVNTDVAWQQWKALRAAYTALDHTPVLVNGQSGLPDMVFCANQTLPFYDPASDSKGVVLSRMHSEQRADEVPYYARFFEEEGYAVDTLPEDLDADFEGMGDALWHPGHHLLWGGYGYRTSPEAYEALGDLLDVPIVALRLVDPDYYHLDTCLCPLDARHALVAPEAFDDAGRALIDALFETVIEVPDHEARHQFACNAHCPDGAHVLIQEGCEGTNAQLRNHDFVPVELDTSEFMKSGGSVFCMKQMIWEGHHHHHH | soluble |
| MSMPETKTRSVALTPPLHTPRLLLLPLQLEDAPAMQSLFNHWEVVRYLTHHVPWPYPEGEALRYLREDALPAMQDGEEWHWSIRLRSQQDRLIGSACMMDEQDNNRGFWLSPAYQGLGLMSEVCVAIDRFWFETLKRPVLRVAKCALNEASCRLSQREGMRLVTVQESQFVCGTTQEQLWELTRDEWRANNGG | not soluble |
| MPEAWIVEAVRTPIGKHGGALASVRPDDLLAHALSVLVDRSGVPKEEVEDVYAGCANQAGEDNRNVARMALLLAGFPVEVAGCTVNRLCGSGLEAVAQAARAIWAGEGKVYIGSGVESMSRAPYAVPKPERGFPTGNLVMYDTTLGWRFVNPKMQALYGTESMGETAENLAEMYGIRREEQDRFALLSHQKAVRAWEEGRFQDEVVPVPVKRGKEEILVEQDEGPRRDTSLEKLAALRPVFREGGTVTAGNSSPLNDGAAAVLLVSDDYAKAHGLRPLARVRAIAVAGVPPRIMGIGPVPATRKALERAGLSFSDLGLIELNEAFAAQALAVLREWSLSMEDQRLNPNGGAIALGHPLGASGARILTTLVHEMRRRKVQFGLATMCIGVGQGIAVVVEGMG | soluble |
| MPSYKLSYFPVRGLAESARLLFHLAGVPFEDERVNFLDDTWEKMKGKTPMGQLPVLTVDDFEIPQSAAINRYLARKFGFAGKTPEEEAWVDAVVDQFKDFFAEFRKLVIAKRVGKSAEELEKLTAEVIKPAMDVYFKVLNGLLEKSKSGYLIGDSITFADLYIADNIQTLKKYGLLEASGEQPKLAAHLEKVYSHPNLKSYIASRPVTEI | not soluble |
| MVDEDKKSGTRVFKKTSPNGKITTYLGKRDFIDRGDYVDLIDGMVLIDEEYIKDNRKVTAHLLAAFRYGREDLDVLGLTFRKDLISETFQVYPQTDKSISRPLSRLQERLKRKLGANAFPFWFEVAPKSASSVTLQPAPGDTGKPCGVDYELKTFVAVTDGSSGEKPKKSALSNTVRLAIRKLTYAPFESRPQPMVDVSKYFMMSSGLLHMEVSLDKEMYYHGESISVNVHIQNNSNKTVKKLKIYIIQVADICLFTTASYSCEVARIESNEGFPVGPGGTLSKVFAVCPLLSNNKDKRGLALDGQLKHEDTNLASSTILDSKTSKESLGIVVQYRVKVRAVLGPLNGELFAELPFTLTHSKPPESPERTDRGLPSIEATNGSEPVDIDLIQLHEELEPRYDDDLIFEDFARMRLHGNDSEDQPSPSANLPPSLL | not soluble |
| MKIVKDFSPKEYSQKLVNWLSDSCMNYPAEGFVIGLSGGIDSAVAASLAVKTGLPTTALILPSDNNQHQDMQDALELIEMLNIEHYTISIQPAYEAFLASTQSFTNLQNNRQLVIKGNAQARLRMMYLYAYAQQYNRIVIGTDNACEWYMGYFTKFGDGAADILPLVNLKKSQVFELGKYLDVPKNILDKAPSAGLWQGQTDEDEMGVTYQEIDDFLDGKQVSAKALERINFWHNRSHHKRKLALTPNF | soluble |
| MGSDKIHHHHHHMSRAITRAQLDKLVRSITKFYPQKYADKSWDNTGLLIDCSTAQVTTADANAKTKVLLTVDLTKSVAQEAVDANCNVIVAYHPFIFPSWNRLSPHTNPQHETAIKLIQYGISVYCPHTAVDAARGGVNDWLVRGLNNGENVAKSYALETVSGETDDLIGYGRFVEFNKDISLEQIVKNVKRVLRVPYVQVASLAAPSAWNQLKIKKVAVCAGSGSGVFKQLKEDVDLYYTGEMSHHEVLKWKEMGKTVIVCNHSNTERGFLQDVMKGLLQDEGHEVVVSKMDCDPLTVA | not soluble |
| FIKLPEFKLNYHNKSYRQYGRGFALQNTNFRPGSSGTLMLNNQKQIAGIYFGVLDFGEDVSLMSNIGVGQILRVPQKNNTRNR | not soluble |
| MGSDKIHHHHHHMLANQNVRARVQNHQLFSSLNEAQLAKIFATASLLHIKPEQMLFHQGELASRFYFVLAGTLQLFRTNVQGQMKVIEVVRSGCTFAEALMFNKQTRFPVSAQSVSECALVSFDSETYLQLLKHNPDACIAIMADLSVRIRKHINEVEMVSLQNAQHRLLLFLLRKMTVVGDNQGEITLDIPKRLLASRLSIQPETFSRLIKKMSQTGLIAESHGVIRIPDVALLYASTDISITQPTFNQQGPSSAIPLVCN | not soluble |
| MSLIRFRFVDDHRTDYSVKRMCTVLGLNRSSYYKWKASSAQRHRRLVDDAILGAKVQAIFDDKKQLYGAKRIAAELTFNDAYSSTGPVNHKRIARIMRKLQLRGYTKKRKVTTTQRERHRFIFADLVKRNFTAPAANRILVGDITYLPIADGSNMYLASVIDCYSRMLVGFAIADHMRTDLVEEALEHARRTRGSLSGAIFHSDHGSVYTSSQFQAVCRRLNVTQSMGAVGSSADNSLAESFNAALKREVLKDQKVFSNQLVCRRDVFAWCARYNTTRRHSWCKYLTPIEYESHASEGHHHHHH | not soluble |
| MTWFIDRRLNGKNKSTVNRQRFLRRYKAQIKQSISEAINKRSVTDVDSGESVSIPTDDISEPMFHQGRGGLRHRVHPGNDHFIQNDRIERPQGGGGGGSGSGQGQASQDGEGQDEFVFQISKDEYLDLLFEDLALPNLKKNQHRQLNEYKTHRAGFTSNGVPANISVVRSLQNSLARRTAMTAGKRRELHALETELETISHSEPAQLLEEERLRREIAELRAKIERVPFIDTFDLRYKNYEKRPEPSSQAVMFCLMDVSGSMDQATKDMAKRFYILLYLFLSRTYKNVEVVYIRHHTQAKEVDEHEFFYSQETGGTIVSSALKLMDEVVKERYDPGQWNIYAAQASDGDNWADDSPLCHEILAKKLLPVVRYYSYIEITRRAHQTLWREYEHLQATFDNFAMQHIRDQEDIYPVFRELFQKQSANQSALEHHHHHH | soluble |
| MIPQIQTLQRLMKATKAARHTKMVNNLDMPFLASRLFVVPHMLASTKLDIILNALAPRLFAGEKFPIEAYSQGNTEAFRPPETYVVQNNIAIIPVHGTLVRRSAWLGALSGLTSYEGLRASFREAIAQPDVNAVLLDIDSGGGEAGGIFDLVEEFQTLSKQYAKPIWAHANEFACSAAYAIACAASQIWIARTGVVGSIGVVCAHLDQSLADEKQGLKWTFVFEGDHKTHGNSHEPLSDTAQIKMQADCALLYEMFVDWVAKNRPLSADAIRDTKAETFIGIQALELGLADAQGTLAQALEALTDSISQTPTATKEGQNTWHAHNTAPKKMMMKKLSTSSTKTKRTKTRATLMKTSTKTKMRTKINRKA | not soluble |
| MSGSIARCETWPFPLHFSLLLLLLDFPACGNKGGLVIFIAHKFSMLRLSMHRASLPLWVGARLLSSTAVLRLEQSAEERTREEELRQRVQQKYRGMQIPEMTHHEYGHFSTTGISASAAHQAARSAGVEGYPGFGGGAFQNRGRVDWLLLLTGCTLVYLSFKILFRQFTRGVNGLELPLWTASIELQAKHILFAVQFQQSEQDQIKKDFEAVRQTNPFVDFFEWVRSRRPEFCCGRKYGADYVMHTLVSCLRSGDGTQLATLARTLQQSMTRKNGDSLQRVDDFVEQLQSAGYLFQGIRGVGSSGVHTPEHSPQPIYTPLREVSQCGVQESDLINALDVKNGEAHSSTPFREAK | soluble |
